# Data taken from patent US20240309105A1 (Boehringer Ingelheim, published 2024).
# Columns and labels:
# human CD40 on cells [1] = biological target: T1, human CD40 on cells (human, UniProt P25942 21-277); test: FACS on B cells in whole blood of healthy subjects; 180 mg SC dose group, Day 64
# human CD40 on cells [2] = biological target: T1, human CD40 on cells; test: binding to human B cells
# human CD40 on cells [3] = biological target: T1, human CD40 on cells; test: cell-based or functional assay
# human CD40 on cells [4] = biological target: T1, human CD40 on cells; test: FACS on B cells in whole blood of healthy subjects; 240 mg SC dose group, Day 78
# human CD40 on cells [5] = biological target: T1, human CD40 on cells; test: FACS on B cells in whole blood of healthy subjects; after the fourth once-weekly SC dose, all doses, until Day 39
# human CD40 on cells [6] = biological target: T1, human CD40 on cells; test: FACS on B cells in whole blood of healthy subjects, free CD40 detected with excess FITC-labeled antibody; 72 hours after a single 120-240 mg SC dose
# human CD40 on cells [7] = biological target: T1, human CD40 on cells; test: FACS on B cells in whole blood of healthy subjects, free CD40 detected with excess FITC-labeled antibody; 72 hours after a single 80 mg SC dose
# human CD40 on cells [8] = biological target: T1, human CD40 on cells; test: cell-based or functional assay; remark: listed apart in the source
# human CD40 on cells [9] = biological target: T1, human CD40 on cells; test: cell binding, flow cytometry (cell line not given)
# Experimental: The specific binding of humanized antibodies to cellular CD40 was analyzed by flow cytometry using human CD40-transfected HEK293 cells. Concentration-dependent binding of Antibody A, Antibody B, and Antibody C was observed. […] No binding was detected on CD40 negative cells such as non-transfected HEK293 cells or the T cell line HSB-2 thus confirming selective binding to CD40 (data not shown).
# human CD40-Fc protein = biological target: T2, human CD40-Fc protein (human, UniProt P25942 21-193); test: ForteBio Octet, human CD40-Fc, with and without human serum
# T2 construct: also called recombinant CD40 protein; not shown: Fc part
# Experimental: Due to antibody and CD40-Fc bivalency avidity effects prevent Kds below 100 pM from being determined accurately. In addition, the binding to CD40-Fc was analyzed in the absence and presence of 50% human serum and no significant effect of serum on binding was observed (data not shown)
# [10] = biological target: T3, cynomolgus monkey CD40 on cells (cynomolgus monkey, UniProt G7PG38 21-278); test: ratio of binding EC50, human over cynomolgus; ratio > 1 means increased binding to Cyno compared to Human
# T3 construct: whole, on cells; Cell surface CD40 on cynomolgus B cells and platelets; also called Cyno CD40; CD40 on cynomolgus monkey B cells and platelets
# human CD40 on cells [11] = biological target: T1, human CD40 on cells; test: FITC-labeled antibody on Ramos cells
# human CD40 on cells [12] = biological target: T1, human CD40 on cells; test: flow cytometry, human CD40-transfected HEK293 cells
# human CD40 on cells [13] = biological target: T1, human CD40 on cells; test: cell-based or functional assay; remark: listed apart in the source
# T1 sequence (P25942 21-277): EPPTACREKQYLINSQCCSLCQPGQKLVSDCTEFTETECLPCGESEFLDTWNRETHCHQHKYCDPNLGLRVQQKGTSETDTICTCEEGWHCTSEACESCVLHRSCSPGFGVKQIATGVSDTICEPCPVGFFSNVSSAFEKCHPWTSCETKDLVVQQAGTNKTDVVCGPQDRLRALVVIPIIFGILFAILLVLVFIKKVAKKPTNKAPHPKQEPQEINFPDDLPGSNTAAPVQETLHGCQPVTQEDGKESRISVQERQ
# T2 sequence (P25942 21-193 limits assumed): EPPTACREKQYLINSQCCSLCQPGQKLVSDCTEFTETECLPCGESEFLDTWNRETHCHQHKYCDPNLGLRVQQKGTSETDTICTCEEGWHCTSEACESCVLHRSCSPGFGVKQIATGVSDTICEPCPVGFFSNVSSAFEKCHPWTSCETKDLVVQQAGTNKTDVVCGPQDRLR
molecule,measurement,setting,value
an antibody of the present invention (BI 655064),CD40 receptor occupancy (RO),human CD40 on cells [1],79%
same,EC90,human CD40 on cells [2],6.85 nM
same,"inhibition of CD54 upregulation after the fourth once-weekly SC dose, all doses, up to Day 39",human CD40 on cells [3],> 90%
same,"inhibition of CD54 upregulation, 80 mg SC single dose, first post-dose measurement (72 hours)",human CD40 on cells [3],87%
same,"inhibition of CD54 upregulation, 80 mg SC, Day 7 post dose",human CD40 on cells [3],95%
same,"inhibition of CD54 upregulation, 180 mg group, Day 64",human CD40 on cells [3],89%
same,"inhibition of CD54 upregulation, 240 mg group, Day 78",human CD40 on cells [3],51%
same,"inhibition of CD54 upregulation, all other doses (120-240 mg SC), from 72 hours onwards",human CD40 on cells [3],95%
same,"inhibition of CD54 upregulation, higher doses (120-240 mg SC), 72 hours after the first dose",human CD40 on cells [3],> 90%
same,CD40 receptor occupancy (RO),human CD40 on cells [4],68%
same,CD40 receptor occupancy (RO),human CD40 on cells [5],> 90%
same,CD40 receptor occupancy (RO),human CD40 on cells [6],94 to 95%
same,CD40 receptor occupancy (RO),human CD40 on cells [7],89%
"Antibody A (antibody, human IgG1, kappa, L234A L235A, V domains shown, also called humanized 20E2) VH: EVQLVESGGGLVKPGGSLRLSCAASGFTFSDYGMHWVRQAPGKGLEWVAYISSGNRIIYYADTVKGRFTISRDNAKNSLYLQMNSLRAEDTALYYCARQDGYRYAMDYWAQGTLVTVSS VL: DIVMTQSPDSLAVSLGERATMSCKSSQSLLNSGNQKNYLTWHQQKPGQPPKLLIYWTSTRESGVPDRFSGSGSGTDFTLTISSLQAEDVAVYYCQNDYTYPLTFGGGTKVEIKR",B cell proliferation: Agonism (SI*),human CD40 on cells [8],< 2 SI (Stimulation Index)
same,EC50,human CD40 on cells [9],1.2 nM
same,Kd,human CD40-Fc protein,< 0.1 nM
same,Species cross-react.: Hu/Cyno Binding (EC50 ratios),[10],3 ratio
"Antibody B (antibody, human IgG1, kappa, L234A L235A, V domains shown, also called humanized 20E2) VH: EVQLVESGGGLVKPGGSLRLSCAASGFTFSDYGMHWVRQAPGKGLEWVAYISSGNRIIYYADTVKGRFTISRDNAKNSLYLQMNSLRAEDTAVYYCARQDGYRYAMDYWGQGTLVTVSS VL: DIVMTQSPDSLAVSLGEKVTINCKSSQSLLNSGNQKNYLTWHQQKPGQPPKLLIYWTSTRESGVPDRFSGSGSGTDFTLTISSLQAEDVAVYYCQNDYTYPLTFGGGTKVEIKR",B cell proliferation: Agonism (SI*),human CD40 on cells [8],< 2 SI (Stimulation Index)
same,EC50,human CD40 on cells [9],1.5 nM
same,Kd,human CD40-Fc protein,< 0.1 nM
same,Species cross-react.: Hu/Cyno Binding (EC50 ratios),[10],2 ratio
"2H11 (antibody, V domains shown, Mouse monoclonal antibody; also called murine anti-CD40 mAb 2H11) VH: EVQLQQSGAELVRPGASVKLSCTASGFNIKDYYVHWVKQRPEKGLEWIGRIDPEDGDSKYAPKFQGKATMTADTSSNTAYLHLSSLTSEDTAVYYCTTSYYVGTYGYWGQGTTLTVSS VL: QIVLTQSPAIMSASPGEKVTITCSASSSVSYMLWFQQKPGTSPKLWIYSTSNLASGVPARFGGSGSGTSYSLTISRMEAEDAATYYCQQRTFYPYTFGGGTKLEIK",binding result,human CD40 on cells [11],binds
"Antibody C (antibody, human IgG1, kappa, L234A L235A, V domains shown, also called humanized 2H11) VH: QVQLVQSGAEVKKPGASVKVSCTASGFNIKDYYVHWVKQAPGQGLEWMGRIDPEDGDSKYAPKFQGKATMTADTSTSTVYMELSSLRSEDTAVYYCTTSYYVGTYGYWGQGTLVTVSS VL: DIQMTQSPSSLSASVGDRVTITCSASSSVSYMLWFQQKPGKAPKLLIYSTSNLASGVPSRFSGSGSGTDFTLTISSLQPEDFATYYCQQRTFYPYTFGGGTKVEIKR",B cell proliferation: Agonism (SI*),human CD40 on cells [8],< 2 SI (Stimulation Index)
same,EC50,human CD40 on cells [9],1.7 nM
same,Kd,human CD40-Fc protein,< 0.1 nM
same,Species cross-react.: Hu/Cyno Binding (EC50 ratios),[10],1 ratio
"4D11 (Kirin/Astellas) anti-CD40 antibody (antibody, V domains shown) VH: QLQLQESGPGLLKPSETLSLTCTVSGGSISSPGYYGGWIRQPPGKGLEWIGSIYKSGSTYHNPSLKSRVTISVDTSKNQFSLKLSSVTAADTAVYYCTRPVVRYFGWFDPWGQGTLVTVSS VL: AIQLTQSPSSLSASVGDRVTITCRASQGISSALAWYQQKPGKAPKLLIYDASNLESGVPSRFSGSGSGTDFTLTISSLQPEDFATYYCQQFNSYPTFGQGTKVEIK",B cell proliferation: Agonism (SI*),human CD40 on cells [8],< 2 SI (Stimulation Index)
same,EC50,human CD40 on cells [9],0.9 nM
same,Kd,human CD40-Fc protein,< 0.1 nM
same,EC50,human CD40 on cells [12],~1 nM
same,"B cell proliferation assay, average IC50",human CD40 on cells [13],~0.02 nM
